Laboratory results taken from patent publication US20210380703A1.

B1: 369_A05 (antibody, V domains shown)
VH: EVQLLESGGGLVQPGGSLRLSCAASGFTFSSYSMNWVRQAPGKGLEWVAGINYNGGYTGYADSVKGRFTISRDNSKNTLYLQMNSLRAEDTAVYYCARSATWHDTHLDYWGQGTLVTVSS
VL: DIQMTQSPSSLSASVGDRVTITCRASQSILTYVNWYQQKPGKAPKLVIYAATSRASGVPSRFSGSGSGTDFTLTISSLQPEDFATYYCQQSYESPLTFGGGTKVEIK
B2: 369_G07 (antibody, V domains shown)
VH: EVQLLESGGGLVQPGGSLRLSCAASGFTFSSYSMNWVRQAPGKGLEWVAGINYNGGYTSYADSVKGRFTISRDNSKNTLYLQMNSLRAEDTAVYYCARSATWHDTHLDYWGQGTLVTVSS
VL: DIQMTQSPSSLSASVGDRVTITCRASQSILTYVNWYQQKPGKAPKLVIYAATSRASGVPSRFSGSGSGTDFTLTISSLQPEDFATYYCQQSYDNPLTFGGGTKVEIK
B3: 373_B03 (antibody, V domains shown)
VH: EVQLLESGGGLVQPGGSLRLSCAASGFTFSSYSMNWVRQAPGKGLEWVAGINYNSGYKSYADSVKGRFTISRDNSKNTLYLQMNSLRAEDTAVYYCARSATWHDTHLDYWGQGTLVTVSS
VL: DIQMTQSPSSLSASVGDRVTITCRASQSILTYLNWYQQKPGKAPKLVIYAATSLASGVPSRFSGSGSGTDFTLTISSLQPEDFATYYCQQSYDNPLTFGGGTKVEIK
B4: 374_C05 (antibody, V domains shown)
VH: EVQLLESGGGLVQPGGSLRLSCAASGFTFDSYSMNWVRQAPGKGLEWVAGINYNSGYKSYADSVKGRFTISRDNSKNTLYLQMNSLRAEDTAVYYCARSATWHDTHLDYWGQGTLVTVSS
VL: DIQMTQSPSSLSASVGDRVTITCRASQSIIRYLNWYQQKPGKAPKLVIYAATSRASGVPSRFSGSGSGTDFTLTISSLQPEDFATYYCQQSYDNPLTFGGGTKVEIK
B5: 365_B09 (antibody, V domains shown)
VH: EVQLLESGGGLVQPGGSLRLSCAASGFTFDSYSMNWVRQAPGKGLEWVAGINYNSGYKSYADSVKGRFTISRDNSKNTLYLQMNSLRAEDTAVYYCARSATWHDTHLDYWGQGTLVTVSS
VL: DIQMTQSPSSLSASVGDRVTITCRASQSILRYLNWYQQKPGKAPKLLIYAATSLHSGVPSRFSGSGSGTDFTLTISSLQPEDFATYYCQQSYDNPLTFGGGTKVEIK
B6: 373_C09 (antibody, V domains shown)
VH: EVQLLESGGGLVQPGGSLRLSCAASGFTFDSYSMNWVRQAPGKGLEWVAGINYNSGYKSYADSVKGRFTISRDNSKNTLYLQMNSLRAEDTAVYYCARSATWHDTHLDYWGQGTLVTVSS
VL: DIQMTQSPSSLSASVGDRVTITCRASQSILTYLNWYQQKPGKAPKLVIYAATSRASGVPSRFSGSGSGTDFTLTISSLQPEDFATYYCQQSYELPLTFGGGTKVEIK
B7: 368_H01 (antibody, V domains shown)
VH: EVQLLESGGGLVQPGGSLRLSCAASGFTFSSYSMNWVRQAPGKGLEWVAGINYNSGYKSYADSVKGRFTISRDNSKNTLYLQMNSLRAEDTAVYYCARSATWHDTHLDYWGQGTLVTVSS
VL: DIQMTQSPSSLSASVGDRVTITCRASQSILSYLNWYQQKPGKAPKLLIYATTSLASGVPSRFSGSGSGTDFTLTISSLQPEDFATYYCQQSYDNPLTFGGGTKVEIK
B8: 373_H10 (antibody, V domains shown)
VH: EVQLLESGGGLVQPGGSLRLSCAASGFTFSSYSMNWVRQAPGKGLEWVAGINYNGGYTGYADSVKGRFTISRDNSKNTLYLQMNSLRAEDTAVYYCARSATWHDTHLDYWGQGTLVTVSS
VL: DIQMTQSPSSLSASVGDRVTITCRASQSILSYVNWYQQKPGKAPKLLIYAATSRASGVPSRFSGSGSGTDFTLTISSLQPEDFATYYCQQSYSLPLTFGGGTKVEIK
B9: 373_E06 (antibody, V domains shown)
VH: EVQLLESGGGLVQPGGSLRLSCAASGFTFDSYSMNWVRQAPGKGLEWVAGINYNSGYKSYADSVKGRFTISRDNSKNTLYLQMNSLRAEDTAVYYCARSATWHDTHLDYWGQGTLVTVSS
VL: DIQMTQSPSSLSASVGDRVTITCRASQSILRYLNWYQQKPGKAPKLLIYAATSLHSGVPSRFSGSGSGTDFTLTISSLQPEDFATYYCQQSYDNPLTFGGGTKVEIK
B10: 365_A07 (antibody, V domains shown)
VH: EVQLLESGGGLVQPGGSLRLSCAASGFTFSSYGMNWVRQAPGKGLEWVAGINYNSGYKGYADSVKGRFTISRDNSKNTLYLQMNSLRAEDTAVYYCARSATWHDTHLDYWGQGTLVTVSS
VL: DIQMTQSPSSLSASVGDRVTITCRASQSIVSYLNWYQQKPGKAPKLLIYAATSRASGVPSRFSGSGSGTDFTLTISSLQPEDFATYYCQQSYNLPLTFGGGTKVEIK
B11: 373_E04 (antibody, V domains shown)
VH: EVQLLESGGGLVQPGGSLRLSCAASGFTFDSYSMNWVRQAPGKGLEWVAGINYNGGYTSYADSVKGRFTISRDNSKNTLYLQMNSLRAEDTAVYYCARSATWHDTHLDYWGQGTLVTVSS
VL: DIQMTQSPSSLSASVGDRVTITCRASQSILTYVNWYQQKPGKAPKLLIYAATSRASGVPSRFSGSGSGTDFTLTISSLQPEDFATYYCQQSYNSPLTFGGGTKVEIK
B12: 376_B06 (antibody, V domains shown)
VH: EVQLLESGGGLVQPGGSLRLSCAASGFTFSSYSMNWVRQAPGKGLEWVAGINYNSGYKGYADSVKGRFTISRDNSKNTLYLQMNSLRAEDTAVYYCARSATWHDTHLDYWGQGTLVTVSS
VL: DIQMTQSPSSLSASVGDRVTITCRASQSILTYLNWYQQKPGKAPKLLIYAATSRASGVPSRFSGSGSGTDFTLTISSLQPEDFATYYCQQSYDLPLTFGGGTKVEIK
B13: 370_H03 (antibody, V domains shown)
VH: EVQLLESGGGLVQPGGSLRLSCAASGFTFDSYSMNWVRQAPGKGLEWVAGINYNSGYKGYADSVKGRFTISRDNSKNTLYLQMNSLRAEDTAVYYCARSATWHDTHLDYWGQGTLVTVSS
VL: DIQMTQSPSSLSASVGDRVTITCRASQSILTYLNWYQQKPGKAPKLLIYAATSLASGVPSRFSGSGSGTDFTLTISSLQPEDFATYYCQQSYDTPLTFGGGTKVEIK
B14: 376_B01 (antibody, V domains shown)
VH: EVQLLESGGGLVQPGGSLRLSCAASGFTFDSYSMNWVRQAPGKGLEWVAGINYNGGYTSYADSVKGRFTISRDNSKNTLYLQMNSLRAEDTAVYYCARSATWHDTHLDYWGQGTLVTVSS
VL: DIQMTQSPSSLSASVGDRVTITCRASQSILTYVNWYQQKPGKAPKLVIYAATSRASGVPSRFSGSGSGTDFTLTISSLQPEDFATYYCQQSYNLPLTFGGGTKVEIK
B15: 373_G05 (antibody, V domains shown)
VH: EVQLLESGGGLVQPGGSLRLSCAASGFTFSSYSMNWVRQAPGKGLEWVAGINYNGGYTSYADSVKGRFTISRDNSKNTLYLQMNSLRAEDTAVYYCARSATWHDTHLDYWGQGTLVTVSS
VL: DIQMTQSPSSLSASVGDRVTITCRASQSILSYLNWYQQKPGKAPKLLIYAATSLASGVPSRFSGSGSGTDFTLTISSLQPEDFATYYCQQSYELPLTFGGGTKVEIK
B16: 370_F08 (antibody, V domains shown)
VH: EVQLLESGGGLVQPGGSLRLSCAASGFTFDSYSMNWVRQAPGKGLEWVAGINYNGGYTSYADSVKGRFTISRDNSKNTLYLQMNSLRAEDTAVYYCARSATWHDTHLDYWGQGTLVTVSS
VL: DIQMTQSPSSLSASVGDRVTITCRASQSIISYVNWYQQKPGKAPKLLIYAATSRHSGVPSRFSGSGSGTDFTLTISSLQPEDFATYYCQQSYNLPLTFGGGTKVEIK
B17: 366_A03 (antibody, V domains shown)
VH: EVQLLESGGGLVQPGGSLRLSCAASGFTFDSYSMNWVRQAPGKGLEWVAGINYNSGYKGYADSVKGRFTISRDNSKNTLYLQMNSLRAEDTAVYYCARSATWHDTHLDYWGQGTLVTVSS
VL: DIQMTQSPSSLSASVGDRVTITCRASQSISSYLNWYQQKPGKAPKLLIYAATSLASGVPSRFSGSGSGTDFTLTISSLQPEDFATYYCQQSYSNPLTFGGGTKVEIK
B18: 376_C11 (antibody, V domains shown)
VH: EVQLLESGGGLVQPGGSLRLSCAASGFTFDSYSMNWVRQAPGKGLEWVAGINYNSGYKSYADSVKGRFTISRDNSKNTLYLQMNSLRAEDTAVYYCARSATWHDTHLDYWGQGTLVTVSS
VL: DIQMTQSPSSLSASVGDRVTITCRASQSILTYLNWYQQKPGKAPKLVIYAATSRASGVPSRFSGSGSGTDFTLTISSLQPEDFATYYCQQSYDNPLTFGGGTKVEIK
B19: 367_A09 (antibody, V domains shown)
VH: EVQLLESGGGLVQPGGSLRLSCAASGFTFDSYGMNWVRQAPGKGLEWVAGINYNGGYTSYADSVKGRFTISRDNSKNTLYLQMNSLRAEDTAVYYCARSATWHDTHLDYWGQGTLVTVSS
VL: DIQMTQSPSSLSASVGDRVTITCRASQSILSYVNWYQQKPGKAPKLVIYAATSRHSGVPSRFSGSGSGTDFTLTISSLQPEDFATYYCQQSYDTPLTFGGGTKVEIK
B20: 374_C11 (antibody, V domains shown)
VH: EVQLLESGGGLVQPGGSLRLSCAASGFTFSSYSMNWVRQAPGKGLEWVAGINYNSGYKGYADSVKGRFTISRDNSKNTLYLQMNSLRAEDTAVYYCARSATWHDTHLDYWGQGTLVTVSS
VL: DIQMTQSPSSLSASVGDRVTITCRASQSILTYLNWYQQKPGKAPKLLIYAATSRASGVPSRFSGSGSGTDFTLTISSLQPEDFATYYCQQSYESPLTFGGGTKVEIK
B21: 365_D05 (antibody, V domains shown)
VH: EVQLLESGGGLVQPGGSLRLSCAASGFTFDSYSMNWVRQAPGKGLEWVAGINYNGGYTSYADSVKGRFTISRDNSKNTLYLQMNSLRAEDTAVYYCARSATWHDTHLDYWGQGTLVTVSS
VL: DIQMTQSPSSLSASVGDRVTITCRASQSILTYVNWYQQKPGKAPKLLIYAATSRASGVPSRFSGSGSGTDFTLTISSLQPEDFATYYCQQSYNSPLTFGGGTKVEIK
B22: 372_F07 (antibody, V domains shown)
VH: EVQLLESGGGLVQPGGSLRLSCAASGFTFDDYSMNWVRQAPGKGLEWVAGINYNSGYKGYADSVKGRFTISRDNSKNTLYLQMNSLRAEDTAVYYCARSATWHDTHLDYWGQGTLVTVSS
VL: DIQMTQSPSSLSASVGDRVTITCRASQSILTYLNWYQQKPGKAPKLVIYAATSRASGVPSRFSGSGSGTDFTLTISSLQPEDFATYYCQQSYELPLTFGGGTKVEIK

These binders were tested against human Fc (human) (assay: ELISA; negative control).
B1 showed an optical density of 0.588 OD.
B2 gave an optical density of 0.32 OD.
In the case of B3, the optical density is reported as 0.18 OD.
Work on B4 yielded an optical density of 0.175 OD.
With B5 the optical density was 0.272 OD.
With B6 the optical density was 0.17 OD.
B7 was tested, and the optical density was 0.374 OD.
B8 showed an optical density of 0.2 OD.
B9 was tested, and the optical density was 0.187 OD.
B10 gave an optical density of 0.284 OD.
In the case of B11, the optical density is reported as 0.251 OD.
Binder B12 has an optical density of 0.222 OD.
B13 gave an optical density of 0.381 OD.
B14 gave an optical density of 0.308 OD.
Work on B15 yielded an optical density of 0.273 OD.
In the case of B16, the optical density is reported as 0.495 OD.
Binder B17 has an optical density of 0.303 OD.
In the case of B18, the optical density is reported as 0.23 OD.
B19 was tested, and the optical density was 0.259 OD.
Work on B20 yielded an optical density of 0.471 OD.
B21 was tested, and the optical density was 0.357 OD.
Work on B22 yielded an optical density of 0.296 OD.
